For experiment [1], the target named is T1, Mcl-1, Q07820.
T1 chain: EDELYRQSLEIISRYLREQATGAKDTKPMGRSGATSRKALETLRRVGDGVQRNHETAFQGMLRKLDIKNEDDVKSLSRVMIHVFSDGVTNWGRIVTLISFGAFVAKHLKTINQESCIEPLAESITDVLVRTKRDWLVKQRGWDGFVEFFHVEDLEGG
Nature of the experiment: competition FP; displacement of the labeled Bak BH3 peptide.

Experiment [2] concerns the target T1, Mcl-1, Q07820. Nature of the experiment: direct-binding FP with the BODIPY-labeled analogue.
The target of the next experiment is Bcl-xL, Q07817. The experiment can be described thus: direct-binding FP with the BODIPY-labeled analogue.
Sequence of Bcl-xL, Q07817 (Q07817 1-209): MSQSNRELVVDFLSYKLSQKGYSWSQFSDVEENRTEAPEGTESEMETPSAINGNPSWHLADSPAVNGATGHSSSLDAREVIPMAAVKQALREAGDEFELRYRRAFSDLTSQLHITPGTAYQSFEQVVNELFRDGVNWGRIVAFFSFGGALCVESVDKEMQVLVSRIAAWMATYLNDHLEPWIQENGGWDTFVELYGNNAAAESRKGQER

This is an account of results in patent US20130177981A1.

What is called Ki is the equilibrium dissociation constant of an inhibitor or competing ligand from its target. Higher therefore signals lower affinity. The term Kd denotes the concentration at which binding is half-saturated.

In turn, EEQWAREIGAQLRRMADDLNAQYERR (peptide, UniProt Q9BXH1 130-155, looked up, modifications not checked) [Puma BH3 α-peptide 1′, Q9BXH1 130-155] returned a Ki in the experiment with Mcl-1, Q07820 [1] of less than 10 nM.
With EEQWAREIGAQLRRMADDLNAQYERR (peptide, UniProt Q9BXH1 130-155, looked up, modifications not checked) [BODIPY-TMR-labeled analog of Puma BH3 α-peptide 1′, Q9BXH1 130-155], in the experiment with Mcl-1, Q07820 [2], the Kd is less than 2 nM.
Turning to EEQWAREIGAQLRRMADDLNAQYERR (peptide, UniProt Q9BXH1 130-155, looked up, modifications not checked) [BODIPY-TMR-labeled analog of Puma BH3 α/β-peptide 4′, Q9BXH1 130-155], the Kd with Bcl-xL, Q07817 is 2.2 nM; with Mcl-1, Q07820 [2] it was 110 nM.
